Results as given in patent US20160145343A1.

Experiments:
[1] = biological target: MUC1 on MUC1+ human cancer cell lines and tumor tissue (abnormal, e.g. hypoglycosylated, tumor MUC1) (human) (UniProt P15941); experiment: immunohistochemistry, colon tissue microarray, benign samples
[2] = biological target: MUC1 on MUC1+ human cancer cell lines and tumor tissue (abnormal, e.g. hypoglycosylated, tumor MUC1) (human) (UniProt P15941); experiment: immunohistochemistry, colon tissue microarray, malignant samples
[3] = biological target: MUC1 on MUC1+ human cancer cell lines and tumor tissue (abnormal, e.g. hypoglycosylated, tumor MUC1) (human) (UniProt P15941); experiment: immunohistochemistry, colon tissue microarray
[4] = biological target: MUC1 on MUC1+ human cancer cell lines and tumor tissue (abnormal, e.g. hypoglycosylated, tumor MUC1) (human) (UniProt P15941); experiment: flow cytometry, SKBR-3 cells, secondary antibody only
[5] = biological target: MUC1 on MUC1+ human cancer cell lines and tumor tissue (abnormal, e.g. hypoglycosylated, tumor MUC1) (human) (UniProt P15941); experiment: flow cytometry, MCF-7 cells, secondary antibody only
[6] = biological target: MUC1 on MUC1+ human cancer cell lines and tumor tissue (abnormal, e.g. hypoglycosylated, tumor MUC1) (human) (UniProt P15941); experiment: flow cytometry, PANC-1 cells, secondary antibody only
[7] = biological target: MUC1 on MUC1+ human cancer cell lines and tumor tissue (abnormal, e.g. hypoglycosylated, tumor MUC1) (human) (UniProt P15941); experiment: flow cytometry, HPAF cells, secondary antibody only
[8] = biological target: MUC1 on MUC1+ human cancer cell lines and tumor tissue (abnormal, e.g. hypoglycosylated, tumor MUC1) (human) (UniProt P15941); experiment: flow cytometry, BT20 cells, secondary antibody only
[9] = biological target: MUC1 on MUC1+ human cancer cell lines and tumor tissue (abnormal, e.g. hypoglycosylated, tumor MUC1) (human) (UniProt P15941); experiment: flow cytometry, MS+MUC1 cells, secondary antibody only
[10] = biological target: MUC1 on MUC1+ human cancer cell lines and tumor tissue (abnormal, e.g. hypoglycosylated, tumor MUC1) (human) (UniProt P15941); experiment: flow cytometry, HPAF cells
[11] = biological target: MUC1 on MUC1+ human cancer cell lines and tumor tissue (abnormal, e.g. hypoglycosylated, tumor MUC1) (human) (UniProt P15941); experiment: flow cytometry, BT20 cells
[12] = biological target: MUC1 on MUC1+ human cancer cell lines and tumor tissue (abnormal, e.g. hypoglycosylated, tumor MUC1) (human) (UniProt P15941); experiment: flow cytometry, MCF-7 cells
[13] = biological target: MUC1 on MUC1+ human cancer cell lines and tumor tissue (abnormal, e.g. hypoglycosylated, tumor MUC1) (human) (UniProt P15941); experiment: flow cytometry, MS+MUC1 cells
[14] = biological target: MUC1 on MUC1+ human cancer cell lines and tumor tissue (abnormal, e.g. hypoglycosylated, tumor MUC1) (human) (UniProt P15941); experiment: flow cytometry, PANC-1 cells
[15] = biological target: MUC1 on MUC1+ human cancer cell lines and tumor tissue (abnormal, e.g. hypoglycosylated, tumor MUC1) (human) (UniProt P15941); experiment: flow cytometry, SKBR-3 cells

| Substance | MUC1+ samples stained (of 3 MUC1+ benign samples) [1] | MUC1+ samples stained (of 114 MUC1+ malignant samples) [2] | samples MUC1+ by staining (of 6 benign samples) [3] | samples MUC1+ by staining (of 138 malignant samples) [3] | percentage of APC+ stained cells [4] [%] | percentage of APC+ stained cells [5] [%] | percentage of APC+ stained cells [6] [%] | percentage of APC+ stained cells [7] [%] | percentage of APC+ stained cells [8] [%] | percentage of APC+ stained cells [9] [%] | percentage of APC+ stained cells [10] [%] | percentage of APC+ stained cells [11] [%] | percentage of APC+ stained cells [12] [%] | percentage of APC+ stained cells [13] [%] | percentage of APC+ stained cells [14] [%] | percentage of APC+ stained cells [15] [%] |
| --- | --- | --- | --- | --- | --- | --- | --- | --- | --- | --- | --- | --- | --- | --- | --- | --- |
| HMPV (BD Biosciences), mouse anti-MUC1 antibody | 3 | 114 | 3 | 114 |  |  |  |  |  |  |  |  |  |  |  |  |
| Hu-2nd. (APC-labeled secondary antibody only control for the human antibodies) |  |  |  |  | 0.96 | 1.73 | 2.01 | 1.02 | 1.17 | 0.55 |  |  |  |  |  |  |
| M-2nd. (APC-labeled secondary antibody only control for the mouse antibodies) |  |  |  |  | 1.67 | 1.39 | 3.45 | 0.77 | 1.74 | 0.46 |  |  |  |  |  |  |
| VU-3C6 (Abcam), mouse anti-MUC1 antibody |  |  |  |  |  |  |  |  |  |  | 98.4 | 92.3 | 98.7 | 99.4 | 98.8 | 99.9 |
| VU-4H5 (Abnova), mouse anti-MUC1 antibody | 2 | 49 |  |  |  |  |  |  |  |  | 6.99 | 32.9 | 27.8 | 24.6 | 54.3 | 24.1 |
